Assay results as given in the supplement of paper PMC11246515.
± gives the standard deviation of the averaged measurements.

Experiment: total protein half-life in vivo (active degradation + dilution); higher = more stable protein
[1] = E. coli NCM3722 delta-clpP delta-lon delta-hslV, growth: N-lim chemostat, doubling time 6 h
[2] = wild type E. coli NCM3722, growth: C-lim chemostat, doubling time 6 h
[3] = wild type E. coli NCM3722, growth: C-lim chemostat, doubling time 12 h
[4] = wild type E. coli NCM3722, growth: N-lim chemostat, doubling time 6 h
[5] = wild type E. coli NCM3722, growth: N-lim chemostat, doubling time 12 h
[6] = wild type E. coli NCM3722, growth: P-lim chemostat, doubling time 12 h
[7] = E. coli NCM3722 delta-clpP, growth: N-lim chemostat, doubling time 6 h
[8] = E. coli NCM3722 delta-hslV, growth: N-lim chemostat, doubling time 6 h
[9] = E. coli NCM3722 delta-lon, growth: N-lim chemostat, doubling time 6 h
[10] = E. coli NCM3722 delta-smpB, growth: N-lim chemostat, doubling time 6 h
[11] = wild type E. coli NCM3722, growth: C-lim chemostat, doubling time 3 h
[12] = wild type E. coli NCM3722, growth: P-lim chemostat, doubling time 6 h

Row | Sequence | total protein half-life in vivo [1] [h] | total protein half-life in vivo [2] [h] | total protein half-life in vivo [3] [h] | total protein half-life in vivo [4] [h] | total protein half-life in vivo [5] [h] | total protein half-life in vivo [6] [h] | total protein half-life in vivo [7] [h] | total protein half-life in vivo [8] [h] | total protein half-life in vivo [9] [h] | total protein half-life in vivo [10] [h] | total protein half-life in vivo [11] [h] | total protein half-life in vivo [12] [h]
1 | MSQSLFSQPLNVINVGIAMFSDDLKKQHVEVTQLDWTPPGQGNMQVVQALDNIADSPLADKIAAANQQALERIIQSHPVLIGFDQAINVVPGMTAKTILHAGPPITWEKMCGAMKGAVTGALVFEGLAKDLDEAAELAASGEITFSPCHEHDCVGSMAGVTSASMFMHIVKNKTYGNIAYTNMSEQMAKILRMGANDQSVIDRLNWMRDVQGPILRDAMKIIGEIDLRLMLAQALHMGDECHNRNNAGTTLLIQALTPGIIQAGYSVEQQREVFEFVASSDYFSGPTWMAMCKAAMDAAHGIEYSTVVTTMARNGVEFGLRVSGLPGQWFTGPAQQVIGPMFAGYKPEDSGLDIGDSAITETYGIGGFAMATAPAIVALVGGTVEEAIDFSRQMREITLGENPNVTIPLLGFMGVPSAIDITRVGSSGILPVINTAIAHKDAGVGMIGAGIVHPPFACFEKAILGWCERYGV | 5.39 ± 0.44 | 4.45 | 7.84 | 2.89 | 4.45 | 8.94 ± 0.66 | – | – | – | – | – | –
2 | MSQTIDLTLDGLSCGHCVKRVKESLEQRPDVEQADVSITEAHVTGTASAEQLIETIKQAGYDASVSHPKAKPLAESSIPSEALTAVSEALPAATADDDDSQQLLLSGMSCASCVTRVQNALQSVPGVTQARVNLAERTALVMGSASPQDLVQAVEKAGYGAEAIEDDAKRRERQQETAVATMKRFRWQAIVALAVGIPVMVWGMIGDNMMVTADNRSLWLVIGLITLAVMVFAGGHFYRSAWKSLLNGAATMDTLVALGTGVAWLYSMSVNLWPQWFPMEARHLYYEASAMIIGLINLGHMLEARARQRSSKALEKLLDLTPPTARLVTDEGEKSVPLAEVQPGMLLRLTTGDRVPVDGEITQGEAWLDEAMLTGEPIPQQKGEGDSVHAGTVVQDGSVLFRASAVGSHTTLSRIIRMVRQAQSSKPEIGQLADKISAVFVPVVVVIALVSAAIWYFFGPAPQIVYTLVIATTVLIIACPCALGLATPMSIISGVGRAAEFGVLVRDADALQRASTLDTVVFDKTGTLTEGKPQVVAVKTFADVDEAQALRLAAALEQGSSHPLARAILDKAGDMQLPQVNGFRTLRGLGVSGEAEGHALLLGNQALLNEQQVGTKAIEAEITAQASQGATPVLLAVDGKAVALLAVRDPLRSDSVAALQRLHKAGYRLVMLTGDNPTTANAIAKEAGIDEVIAGVLPDGKAEAIKHLQSEGRQVAMVGDGINDAPALAQADVGIAMGGGSDVAIETAAITLMRHSLMGVADALAISRATLHNMKQNLLGAFIYNSIGIPVAAGILWPFTGTLLNPVVAGAAMALSSITVVSNANRLLRFKPKE | 5.76 ± 0.52 | 5.07 ± 0.085 | 9.5 ± 0.77 | 5.26 ± 0.34 | 9.52 ± 0.35 | 9.65 ± 0.45 | 5.33 ± 0.2 | 5.194 ± 0.042 | 5.433 ± 0.023 | 5.23 ± 0.55 | 2.89 ± 0.21 | 5.33 ± 0.32
3 | MSQTVHFQGNPVTVANSIPQAGSKAQTFTLVAKDLSDVTLGQFAGKRKVLNIFPSIDTGVCAASVRKFNQLATEIDNTVVLCISADLPFAQSRFCGAEGLNNVITLSTFRNAEFLQAYGVAIADGPLKGLAARAVVVIDENDNVIFSQLVDEITTEPDYEAALAVLKA [P0A862] | 5.35 ± 0.21 | 6.01 ± 0.23 | 10.8 ± 1.2 | 5.01 ± 0.18 | 9.45 ± 1.1 | 13.3 ± 0.69 | 5.2 ± 0.74 | 5.25 ± 0.47 | 4.96 ± 0.085 | 4.739 ± 0.047 | 3.16 ± 0.047 | 6.09 ± 0.53
4 | MSQVLITGATGLVGGHLLRMLINEPKVNAIAAPTRRPLGDMPGVFNPHDPQLSDALAQVTDPIDIVFCCLGTTRREAGSKEAFIHADYTLVVDTALTGRRLGAQHMLVVSAMGANAHSPFFYNRVKGEMEEALIAQNWPKLTIARPSMLLGDRSKQRMNETLFAPLFRLLPGNWKSIDARDVARVMLAESMRPEHEGVTILSSSELRKRAE | 6.13 ± 0.065 | – | – | 5.69 ± 1.1 | – | – | 5.36 ± 0.4 | 5.98 ± 0.48 | 6.26 ± 0.69 | – | 3.24 ± 0.14 | –
5 | MSRFVPRIIPFYLLLLVAGGTANAQSTFEQKAANPFDNNNDGLPDLGMAPENHDGEKHFAEIVKDFGETSMNDNGLDTGEQAKAFALGKVRDALSQQVNQHVESWLSPWGNASVDVKVDNEGHFTGSRGSWFVPLQDNDRYLTWSQLGLTQQDNGLVSNVGVGQRWARGNWLVGYNTFYDNLLDENLQRAGFGAEAWGEYLRLSANFYQPFAAWHEQTATQEQRMARGYDLTARMRMPFYQHLNTSVSLEQYFGDRVDLFNSGTGYHNPVALSLGLNYTPVPLVTVTAQHKQGESGENQNNLGLNLNYRFGVPLKKQLSAGEVAESQSLRGSRYDNPQRNNLPTLEYRQRKTLTVFLATPPWDLKPGETVPLKLQIRSRYGIRQLIWQGDTQILSLTPGAQANSAEGWTLIMPDWQNGEGASNHWRLSVVVEDNQGQRVSSNEITLTLVEPFDALSNDELRWEP | – | – | – | 6.73 ± 1 | 14.3 ± 1.6 | – | 6.12 | 5.24 ± 1.5 | 5.79 ± 1.8 | 5.36 ± 0.54 | – | –
6 | MSRIIMLIPTGTSVGLTSVSLGVIRAMERKGVRLSVFKPIAQPRTGGDAPDQTTTIVRANSSTTTAAEPLKMSYVEGLLSSNQKDVLMEEIVANYHANTKDAEVVLVEGLVPTRKHQFAQSLNYEIAKTLNAEIVFVMSQGTDTPEQLKERIELTRNSFGGAKNTNITGVIVNKLNAPVDEQGRTRPDLSEIFDDSSKAKVNNVDPAKLQESSPLPVLGAVPWSFDLIATRAIDMARHLNATIINEGDINTRRVKSVTFCARSIPHMLEHFRAGSLLVTSADRPDVLVAACLAAMNGVEIGALLLTGGYEMDARISKLCERAFATGLPVFMVNTNTWQTSLSLQSFNLEVPVDDHERIEKVQEYVANYINADWIESLTATSERSRRLSPPAFRYQLTELARKAGKRIVLPEGDEPRTVKAAAICAERGIATCVLLGNPAEINRVAASQGVELGAGIEIVDPEVVRESYVGRLVELRKNKGMTETVAREQLEDNVVLGTLMLEQDEVDGLVSGAVHTTANTIRPPLQLIKTAPGSSLVSSVFFMLLPEQVYVYGDCAINPDPTAEQLAEIAIQSADSAAAFGIEPRVAMLSYSTGTSGAGSDVEKVREATRLAQEKRPDLMIDGPLQYDAAVMADVAKSKAPNSPVAGRATVFIFPDLNTGNTTYKAVQRSADLISIGPMLQGMRKPVNDLSRGALVDDIVYTIALTAIQSAQQQ [P0A9M8] | 6.116 ± 0.01 | 5.61 ± 0.24 | 11 ± 0.26 | 6.14 ± 0.12 | 11.99 ± 0.054 | 11.8 ± 0.43 | 5.89 ± 0.68 | 6.22 ± 0.38 | 6.08 ± 0.32 | 5.973 ± 0.042 | 3.14 ± 0.039 | 6.32 ± 0.58
